# The supplement of paper PMC5998384
# What was measured:
# [1] = tested on: HeLa Kyoto; test: thermal stability score vs G1/S (z-score of summed log2 fold changes over temperatures); higher = more thermally stable than in G1/S
# [2] = tested on: HeLa Kyoto; test: melting temperature (median over replicates), in situ; higher = more thermally stable
# [3] = tested on: HeLa Kyoto; test: solubility change mitosis vs G1/S (difference of NP-40 vs SDS log2 ratios) (log2 ratio difference); higher = more soluble in mitosis
# [4] = tested on: HeLa Kyoto; test: solubility in G1/S (NP-40 vs SDS abundance) (log2 ratio); higher = more soluble; settings: cell cycle stage: G1/S
# [5] = cell cycle stage: early G1 (4.5 h after nocodazole release)
# 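Throughout, for melting temperature (median over replicates), in situ: HeLa Kyoto cells synchronized by double thymidine or nocodazole block, proteins quantified by TMT10plex mass spectrometry, three independent biological replicates.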
# 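Throughout, for solubility change mitosis vs G1/S (difference of NP-40 vs SDS log2 ratios): synchronized HeLa Kyoto cells (double thymidine block for G1/S, nocodazole release for mitosis), protein amounts in NP-40 versus SDS lysates quantified by mass spectrometry, three biological replicates.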
# 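Throughout, for solubility in G1/S (NP-40 vs SDS abundance): HeLa Kyoto cells arrested at G1/S by double thymidine block, proteins quantified by TMT10plex mass spectrometry in mild NP-40 versus SDS extracts, three biological replicates.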
# 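Throughout, for thermal stability score vs G1/S (z-score of summed log2 fold changes over temperatures): synchronized HeLa Kyoto cells, proteins quantified by TMT10plex mass spectrometry, three biological replicates, mitosis taken 0.5 h after nocodazole release, G1/S directly after double thymidine block.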
Sequence,"thermal stability score [1, 5]",thermal stability score ([1]; cell cycle stage: mitosis),melting temperature ([2]; cell cycle stage: G1/S) [°C],melting temperature ([2]; cell cycle stage: mitosis) [°C],solubility change mitosis (log2) [3],solubility in G1/S (log2) [4]
MMGLGNGRRSMKSPPLVLAALVACIIVLGFNYWIASSRSVDLQTRIMELEGRVRRAAAERGAVELKKNEFQGELEKQREQLDKIQSSHNFQLESVNKLYQDEKAVLVNNITTGERLIRVLQDQLKTLQRNYGRLQQDVLQFQKNQTNLERKFSYDLSQCINQMKEVKEQCEERIEEVTKKGNEAVASRDLSENNDQRQQLQALSEPQPRLQAAGLPHTEVPQGKGNVLGNSKSQTPAPSSEVVLDSKRQVEKEETNEIQVVNEEPQRDRLPQEPGREQVVEDRPVGGRGFGGAGELGQTPQVQAALSVSQENPEMEGPERDQLVIPDGQEEEQEAAGEGRNQQKLRGEDDYNMDENEAESETDKQAALAGNDRNIDVFNVEDQKRDTINLLDQREKRNHTL [GOLM1],-2.29,-1.82,55.9,59.3,0.556,-0.0257
MMKLRHKNKKPGEGSKGHKKISWPYPQPAKQNGKKATSKVPSAPHFVHPNDHANREAELKKKWVEEMREKQQAAREQERQKRRTIESYCQDVLRRQEEFEHKEEVLQELNMFPQLDDEATRKAYYKEFRKVVEYSDVILEVLDARDPLGCRCFQMEEAVLRAQGNKKLVLVLNKIDLVPKEVVEKWLDYLRNELPTVAFKASTQHQVKNLNRCSVPVDQASESLLKSKACFGAENLMRVLGNYCRLGEVRTHIRVGVVGLPNVGKSSLINSLKRSRACSVGAVPGITKFMQEVYLDKFIRLLDAPGIVPGPNSEVGTILRNCVHVQKLADPVTPVETILQRCNLEEISNYYGVSGFQTTEHFLTAVAHRLGKKKKGGLYSQEQAAKAVLADWVSGKISFYIPPPATHTLPTHLSAEIVKEMTEVFDIEDTEQANEDTMECLATGESDELLGDTDPLEMEIKLLHSPMTKIADAIENKTTVYKIGDLTGYCTNPNRHQMGWAKRNVDHRPKSNSMVDVCSVDRRSVLQRIMETDPLQQGQALASALKNKKKMQKRADKIASKLSDSMMSALDLSGNADDGVGD [GNL3L],3.18,4.42,48.1,50.3,0.334,-0.846
MMLRGNLKQVRIEKNPARLRALESAVGESEPAAAAAMALALAGEPAPPAPAPPEDHPDEEMGFTIDIKSFLKPGEKTYTQRCRLFVGNLPTDITEEDFKRLFERYGEPSEVFINRDRGFGFIRLESRTLAEIAKAELDGTILKSRPLRIRFATHGAALTVKNLSPVVSNELLEQAFSQFGPVEKAVVVVDDRGRATGKGFVEFAAKPPARKALERCGDGAFLLTTTPRPVIVEPMEQFDDEDGLPEKLMQKTQQYHKEREQPPRFAQPGTFEFEYASRWKALDEMEKQQREQVDRNIREAKEKLEAEMEAARHEHQLMLMRQDLMRRQEELRRLEELRNQELQKRKQIQLRHEEEHRRREEEMIRHREQEELRRQQEGFKPNYMENREQEMRMGDMGPRGAINMGDAFSPAPAGNQGPPPMMGMNMNNRATIPGPPMGPGPAMGPEGAANMGTPMMPDNGAVHNDRFPQGPPSQMGSPMGSRTGSETPQAPMSGVGPVSGGPGGFGRGSQGGNFEGPNKRRRY [PSPC1],1,1.79,49.1,48.7,0.177,0.205
MMPMFLTVYLSNNEQHFTEVPVTPETICRDVVDLCKEPGESDCHLAEVWCGSERPVADNERMFDVLQRFGSQRNEVRFFLRHERPPGRDIVSGPRSQDPSLKRNGVKVPGEYRRKENGVNSPRMDLTLAELQEMASRQQQQIEAQQQLLATKEQRLKFLKQQDQRQQQQVAEQEKLKRLKEIAENQEAKLKKVRALKGHVEQKRLSNGKLVEEIEQMNNLFQQKQRELVLAVSKVEELTRQLEMLKNGRIDSHHDNQSAVAELDRLYKELQLRNKLNQEQNAKLQQQRECLNKRNSEVAVMDKRVNELRDRLWKKKAALQQKENLPVSSDGNLPQQAASAPSRVAAVGPYIQSSTMPRMPSRPELLVKPALPDGSLVIQASEGPMKIQTLPNMRSGAASQTKGSKIHPVGPDWSPSNADLFPSQGSASVPQSTGNALDQVDDGEVPLREKEKKVRPFSMFDAVDQSNAPPSFGTLRKNQSSEDILRDAQVANKNVAKVPPPVPTKPKQINLPYFGQTNQPPSDIKPDGSSQQLSTVVPSMGTKPKPAGQQPRVLLSPSIPSVGQDQTLSPGSKQESPPAAAVRPFTPQPSKDTLLPPFRKPQTVAASSIYSMYTQQQAPGKNFQQAVQSALTKTHTRGPHFSSVYGKPVIAAAQNQQQHPENIYSNSQGKPGSPEPETEPVSSVQENHENERIPRPLSPTKLLPFLSNPYRNQSDADLEALRKKLSNAPRPLKKRSSITEPEGPNGPNIQKLLYQRTTIAAMETISVPSYPSKSASVTASSESPVEIQNPYLHVEPEKEVVSLVPESLSPEDVGNASTENSDMPAPSPGLDYEPEGVPDNSPNLQNNPEEPNPEAPHVLDVYLEEYPPYPPPPYPSGEPEGPGEDSVSMRPPEITGQVSLPPGKRTNLRKTGSERIAHGMRVKFNPLALLLDSSLEGEFDLVQRIIYEVDDPSLPNDEGITALHNAVCAGHTEIVKFLVQFGVNVNAADSDGWTPLHCAASCNNVQVCKFLVESGAAVFAMTYSDMQTAADKCEEMEEGYTQCSQFLYGVQEKMGIMNKGVIYALWDYEPQNDDELPMKEGDCMTIIHREDEDEIEWWWARLNDKEGYVPRNLLGLYPRIKPRQRSLA [TP53BP2],0.713,1.28,48.9,48.5,-0.063,0.0669
MMPTPVILLKEGTDSSQGIPQLVSNISACQVIAEAVRTTLGPRGMDKLIVDGRGKATISNDGATILKLLDVVHPAAKTLVDIAKSQDAEVGDGTTSVTLLAAEFLKQVKPYVEEGLHPQIIIRAFRTATQLAVNKIKEIAVTVKKADKVEQRKLLEKCAMTALSSKLISQQKAFFAKMVVDAVMMLDDLLQLKMIGIKKVQGGALEDSQLVAGVAFKKTFSYAGFEMQPKKYHNPKIALLNVELELKAEKDNAEIRVHTVEDYQAIVDAEWNILYDKLEKIHHSGAKVVLSKLPIGDVATQYFADRDMFCAGRVPEEDLKRTMMACGGSIQTSVNALSADVLGRCQVFEETQIGGERYNFFTGCPKAKTCTFILRGGAEQFMEETERSLHDAIMIVRRAIKNDSVVAGGGAIEMELSKYLRDYSRTIPGKQQLLIGAYAKALEIIPRQLCDNAGFDATNILNKLRARHAQGGTWYGVDINNEDIADNFEAFVWEPAMVRINALTAASEAACLIVSVDETIKNPRSTVDAPTAAGRGRGRGRPH [CCT7],-0.684,-1.22,54.1,54.2,-0.0678,0.162
MNAEPERKFGVVVVGVGRAGSVRMRDLRNPHPSSAFLNLIGFVSRRELGSIDGVQQISLEDALSSQEVEVAYICSESSSHEDYIRQFLNAGKHVLVEYPMTLSLAAAQELWELAEQKGKVLHEEHVELLMEEFAFLKKEVVGKDLLKGSLLFTAGPLEEERFGFPAFSGISRLTWLVSLFGELSLVSATLEERKEDQYMKMTVCLETEKKSPLSWIEEKGPGLKRNRYLSFHFKSGSLENVPNVGVNKNIFLKDQNIFVQKLLGQFSEKELAAEKKRILHCLGLAEEIQKYCCSRK [BLVRA],-0.499,-0.397,54.9,55,-0.0957,0.108
MNAGPGCEPCTKRPRWGAATTSPAASDARSFPSRQRRVLDPKDAHVQFRVPPSSPACVPGRAGQHRGSATSLVFKQKTITSWMDTKGIKTAESESLDSKENNNTRIESMMSSVQKDNFYQHNVEKLENVSQLSLDKSPTEKSTQYLNQHQTAAMCKWQNEGKHTEQLLESEPQTVTLVPEQFSNANIDRSPQNDDHSDTDSEENRDNQQFLTTVKLANAKQTTEDEQAREAKSHQKCSKSCDPGEDCASCQQDEIDVVPESPLSDVGSEDVGTGPKNDNKLTRQESCLGNSPPFEKESEPESPMDVDNSKNSCQDSEADEETSPGFDEQEDGSSSQTANKPSRFQARDADIEFRKRYSTKGGEVRLHFQFEGGESRTGMNDLNAKLPGNISSLNVECRNSKQHGKKDSKITDHFMRLPKAEDRRKEQWETKHQRTERKIPKYVPPHLSPDKKWLGTPIEEMRRMPRCGIRLPLLRPSANHTVTIRVDLLRAGEVPKPFPTHYKDLWDNKHVKMPCSEQNLYPVEDENGERTAGSRWELIQTALLNKFTRPQNLKDAILKYNVAYSKKWDFTALIDFWDKVLEEAEAQHLYQSILPDMVKIALCLPNICTQPIPLLKQKMNHSITMSQEQIASLLANAFFCTFPRRNAKMKSEYSSYPDINFNRLFEGRSSRKPEKLKTLFCYFRRVTEKKPTGLVTFTRQSLEDFPEWERCEKPLTRLHVTYEGTIEENGQGMLQVDFANRFVGGGVTSAGLVQEEIRFLINPELIISRLFTEVLDHNECLIITGTEQYSEYTGYAETYRWSRSHEDGSERDDWQRRCTEIVAIDALHFRRYLDQFVPEKMRRELNKAYCGFLRPGVSSENLSAVATGNWGCGAFGGDARLKALIQILAAAAAERDVVYFTFGDSELMRDIYSMHIFLTERKLTVGDVYKLLLRYYNEECRNCSTPGPDIKLYPFIYHAVESCAETADHSGQRTGT [PARG],-0.493,-0.304,50.8,50,-0.0937,-0.159
MNGRVDYLVTEEEINLTRGPSGLGFNIVGGTDQQYVSNDSGIYVSRIKENGAAALDGRLQEGDKILSVNGQDLKNLLHQDAVDLFRNAGYAVSLRVQHRLQVQNGPIGHRGEGDPSGIPIFMVLVPVFALTMVAAWAFMRYRQQL [SYNJ2BP],1.82,1.39,51.6,51.6,-0.0614,0.0992
MNHDFQALALESRGMGELLPTKKFWEPDDSTKDGQKGIFLGDDEWRETAWGASHHSMSQPIMVQRRSGQGFHGNSEVNAILSPRSESGGLGVSMVEYVLSSSPADKLDSRFRKGNFGTRDAETDGPEKGDQKGKASPFEEDQNRDLKQGDDDDSKINGRGLPNGMDADCKDFNRTPGSRQASPTEVVERLGPNTNPSEGLGPLPNPTANKPLVEEFSNPETQNLDAMEQVGLESLQFDYPGNQVPMDSSGATVGLFDYNSQQQLFQRTNALTVQQLTAAQQQQYALAAAQQPHIAGVFSAGLAPAAFVPNPYIISAAPPGTDPYTAAGLAAAATLAGPAVVPPQYYGVPWGVYPANLFQQQAAAAANNTASQQAASQAQPGQQQVLRAGAGQRPLTPNQGQQGQQAESLAAAAAANPTLAFGQGLATGMPGYQVLAPTAYYDQTGALVVGPGARTGLGAPVRLMAPTPVLISSAAAQAAAAAAAGGTASSLTGSTNGLFRPIGTQPPQQQQQQPSTNLQSNSFYGSSSLTNSSQSSSLFSHGPGQPGSTSLGFGSGNSLGAAIGSALSGFGSSVGSSASSSATRRESLSTSSDLYKRSSSSLAPIGQPFYNSLGFSSSPSPIGMPLPSQTPGHSLTPPPSLSSHGSSSSLHLGGLTNGSGRYISAAPGAEAKYRSASSTSSLFSSSSQLFPPSRLRYNRSDIMPSGRSRLLEDFRNNRFPNLQLRDLIGHIVEFSQDQHGSRFIQQKLERATPAERQMVFNEILQAAYQLMTDVFGNYVIQKFFEFGSLDQKLALATRIRGHVLPLALQMYGCRVIQKALESISSDQQVISEMVKELDGHVLKCVKDQNGNHVVQKCIECVQPQSLQFIIDAFKGQVFVLSTHPYGCRVIQRILEHCTAEQTLPILEELHQHTEQLVQDQYGNYVIQHVLEHGRPEDKSKIVSEIRGKVLALSQHKFASNVVEKCVTHASRAERALLIDEVCCQNDGPHSALYTMMKDQYANYVVQKMIDMAEPAQRKIIMHKIRPHITTLRKYTYGKHILAKLEKYYLKNSPDLGPIGGPPNGML [PUM2],1.8,1.49,54,50.2,-0.11,0.446
